Results on 19 molecules are retold here after patent US20210347848A1 (ALX ONCOLOGY, published 2021).

Positions count from the first letter of the chain named.

T1: mouse CD47 (mouse, UniProt Q61735 19-140, limits assumed)
T1 construct: Soluble analyte in SPR; construct not described
T1 sequence (looked up): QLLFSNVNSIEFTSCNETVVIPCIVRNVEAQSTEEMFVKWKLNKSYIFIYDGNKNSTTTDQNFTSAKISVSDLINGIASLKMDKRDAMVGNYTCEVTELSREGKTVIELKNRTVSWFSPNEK

B1: Decoy polypeptide D (Fc fusion)
chain: EEELQIIQPEKLLLVTVGKTATLHCTITSLFPVGPIQWFRGVGPGRVLIYNQKDGHFPRVTTVSDGTKRNNMDFSIRISSITPADVGTYYCVKFRKGSPEDVEFKSGPGTEMALGAKPSDKTHTCPPCPAPEAAGAPSVFLFPPKPKDTLMISRTPEVTCVVVDVSHEDPEVKFNWYVDGVEVHNAKTKPREEQYASTYRVVSVLTVLHQDWLNGKEYKCKVSNKALPAPIEKTISKAKGQPREPQVYTLPPSREEMTKNQVSLTCLVKGFYPSDIAVEWESNGQPENNYKTTPPVLDSDGSFFLYSKLTVDKSRWQQGNVFSCSVMHEALHNHYTQKSLSLSPG
B2: Decoy polypeptide H (Fc fusion)
chain: B1 chain with V47E, Q52A, K53R, D54E, H56R, G66L
B3: Decoy polypeptide G (Fc fusion)
chain: B1 chain with I36V, Q37L, K53R, D54Q, H56P, G66T, S98T
B4: Decoy polypeptide F (Fc fusion)
chain: B1 chain with L30H
B5: Decoy polypeptide L (Fc fusion)
chain: B1 chain with I6L, V33P, H56P, S98I
B6: Decoy polypeptide B (Fc fusion)
chain: B1 chain with K53R, H56P, S98T
B7: Decoy polypeptide C (Fc fusion)
chain: B1 chain with H56P
B8: Decoy polypeptide J (Fc fusion)
chain: B1 chain with F31L, V47E, K53R, H56P, S98T
B9: Decoy polypeptide A (Fc fusion)
chain: B1 chain with I36V, Q37L, K53R, D54Q, H56P, G66T, V92I, D101N
notes: expressed in Expi293 cells
B10: Decoy polypeptide Q (Fc fusion)
chain: EEELQIIQPDKSISVAAGESATLHCTITSLFPVGPIQWFRGAGPGRVLIYNQRQGPFPRVTTVSDTTKRNNMDFSIRISNITPADAGTYYCIKFRKGSPDDVEFKSGAGTELSVRAKPSDKTHTCPPCPAPEAAGAPSVFLFPPKPKDTLMISRTPEVTCVVVDVSHEDPEVKFNWYVDGVEVHNAKTKPREEQYASTYRVVSVLTVLHQDWLNGKEYKCKVSNKALPAPIEKTISKAKGQPREPQVYTLPPSREEMTKNQVSLTCLVKGFYPSDIAVEWESNGQPENNYKTTPPVLDSDGSFFLYSKLTVDKSRWQQGNVFSCSVMHEALHNHYTQKSLSLSPG
B11: Decoy polypeptide P (Fc fusion)
chain: B10 chain with E2D, D10E, I13V, H24R, T26A, P44A, D65E, M72L, R77S
B12: Decoy polypeptide U (Fc fusion)
chain: B10 chain with I13V, S14L, S20T, H24R, V47E, Q54E, S79G, N80A, I92V
notes: positive control
B13: Decoy polypeptide N (Fc fusion)
chain: B1 chain with I6M, V42A, K53R, H56P, V92I, S98I
B14: Decoy polypeptide E (Fc fusion)
chain: B1 chain with V42A, K53R, H56P, V92I, S98T
B15: Decoy polypeptide I (Fc fusion)
chain: B1 chain with K53R, D54E, H56P
B16: Decoy polypeptide M (Fc fusion)
chain: B1 chain with V33I, Q37L, H56P
B17: Decoy polypeptide K (Fc fusion)
chain: B1 chain with I27L, F31L, Q37L, K53R, H56P, S98N
B18: Decoy polypeptide T (Fc fusion)
chain: B10 chain with I6V, I27V, F31I, V47E, R53K, Q54E, P56H, T66L, I92V, D101H
notes: also called wild type SIRPβ2
B19: Decoy polypeptide S (Fc fusion)
chain: EDELQVIQPEKSVSVAAGESATLRCAMTSLIPVGPIMWFRGAGAGRELIYNQKEGHFPRVTTVSELTKRNNLDFSISISNITPADAGTYYCVKFRKGSPDDVEFKSGAGTELSVRAKPSDKTHTCPPCPAPEAAGAPSVFLFPPKPKDTLMISRTPEVTCVVVDVSHEDPEVKFNWYVDGVEVHNAKTKPREEQYASTYRVVSVLTVLHQDWLNGKEYKCKVSNKALPAPIEKTISKAKGQPREPQVYTLPPSREEMTKNQVSLTCLVKGFYPSDIAVEWESNGQPENNYKTTPPVLDSDGSFFLYSKLTVDKSRWQQGNVFSCSVMHEALHNHYTQKSLSLSPG
notes: also called wild type SIRPβ1

One assay deals with T2, human CD47 (human, UniProt Q08722 19-135).
T2 construct: Soluble analyte in SPR; also called hCD47
T2 sequence (Q08722 other isoform, or with tags, fused parts or gaps limits assumed): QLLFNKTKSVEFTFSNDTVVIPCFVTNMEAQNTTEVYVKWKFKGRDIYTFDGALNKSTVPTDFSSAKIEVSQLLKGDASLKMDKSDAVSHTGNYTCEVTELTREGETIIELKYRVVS
The assay can be described thus: SPR; ratio against decoy polypeptide R (wild type SIRPγ D1 domain). The method, then: (§1) The binding affinities each decoy polypeptides for CD47 from various species (e.g., human CD47, cynomolgus monkey CD47, and mouse CD47) were determined using indirect capture via biotinylated Protein A (via NLC chip). All experiments were performed at 25° C. using a Surface Plasmon Resonance (SPR)-based ProteOn XPR36 biosensor (BioRad, Inc., Hercules, Calif.). The running buffer was PBS at pH 7.4 with 0.01% Tween-20 (PBST+). All analytes were used at their nominal concentrations as determined by A₂₈₀ absorbance and using their molar calculated extinction coefficients.
(§2) As a first step, 15 μg/mL biotinylated protein A (Thermofisher) was injected at 30 μL/min for 120 seconds over the NLC chip to obtain an immobilization response of about 1000-1200 RUs. Next, decoy polypeptides (about 100-160 nM) were injected for 80 seconds at 30 μL/min. The CD47 analytes (from human, cynomolgus monkey, and mouse) were subsequently injected in a “one-shot” kinetic mode at nominal concentrations of 100 nM, 33 nM, 11 nM, 3.7 nM, 1.2 nM, and 0 nM. Association times were monitored for 60 seconds at 25 μL/min, and dissociation times were monitored for 500 seconds. The surfaces were regenerated with a 2:1 v/v blend of Pierce IgG elution buffer/4M NaCl. Biosensor data were double-referenced by subtracting the interspot data (containing no immobilized protein) from the reaction spot data (immobilized protein) and then subtracting the response of a buffer “blank” analyte injection from that of an analyte injection. Double-referenced data were fit globally to a simple Langmuir model and the KD value was calculated from the ratio of the apparent kinetic rate constants (KD=kd/kₐ).
(In SPR one partner is held on a chip, and binding of the other changes the refractive index at the surface.)
For B1, the “Fold improvement in KD vs wild type” value came out at 1220 fold.
The same measure, in the same setting: next, B2: 4530 fold; B3: 1400 fold; B4: 2490 fold.
In the case of B5, the “Fold improvement in KD vs wild type” value came to 545 fold.
Still for that read-out and setting: next, B6: 6840 fold; B7: 9010 fold.
On the same count and under the same terms, as for B8, the figure is 7960 fold.

A further assay has as its target T2, human CD47. Kind of assay: SPR, decoy captured on biotinylated Protein A, CD47 as analyte, 25 C. The method, then:
as §1, §2
For the molecule B9, binding was characterised by a dissociation constant (Kd) of 74.8 nM.
For the molecule B1, binding was characterised by a dissociation constant (Kd) of 1.8 nM.
Molecule B2 had a Kd of 0.483 nM.
The same measure, in the same setting: as for B3, the figure is 1.56 nM; as for B4, 0.881 nM; as for B5, 4.02 nM.
As to B6, the Kd was found to be 0.32 nM.
Still for that read-out and setting: next, B7: 0.243 nM; B8: 0.275 nM; B10: 0.213 nM.
On the same count and under the same terms, next, B11: 0.35 nM.

The target of the next assay is T2, human CD47. The assay is described as above. The source holds these as a separate data set. The method, then: as §1, §2
As to B7, binding was characterised by a dissociation constant (Kd) of 0.243 nM.
On the same count and under the same terms, as for B8, the figure is 0.398 nM.
Take B10: the Kd was determined as 0.0785 nM.
Still for that read-out and setting: as for B12, the figure is 0.193 nM; as for B11, 0.288 nM.

The next assay has as its target T3, cynomolgus monkey CD47 (cynomolgus monkey, UniProt A0A2K5X523 19-135).
T3 construct: Soluble analyte in SPR; construct not described; also called Cyno CD47
The description is as above. The method, then: as §1, §2
B7 came in with a Kd of 0.274 nM.
Same read-out and setting: as for B8, the figure is 0.33 nM; as for B10, 0.106 nM.
Still for that read-out and setting: next, B12: 0.224 nM; B11: 0.334 nM.

In another assay the target is T1, mouse CD47. The assay is described as above. The method, then:
as §1, §2
The molecule B7 came in with a Kd of 0.905 nM.
Same read-out and setting: as for B8, the figure is 1.3 nM; as for B10, 24.1 nM.
On the same count and under the same terms, as for B12, the figure is 7.82 nM.
The same measure, in the same setting: next, B11: 146 nM.

The next assay addresses T2, human CD47. The assay can be described thus: SPR, decoy captured on biotinylated Protein A (NLC chip), CD47 as analyte. The method, then: as §1, §2
Turning to B13, the binding result was “no binding (tested: CD47 analyte up to 100 nM)”.
B14: the binding result is “no binding (tested: CD47 analyte up to 100 nM)”.
Same read-out and setting: next, B15: “no binding (tested: CD47 analyte up to 100 nM)”; B16: “no binding (tested: CD47 analyte up to 100 nM)”.
On the same count and under the same terms, next, B17: “no binding (tested: CD47 analyte up to 100 nM)”.

The next assay deals with T2, human CD47. Described as above. This is another data set of the same source.
Regarding B18, the binding result is listed as “no binding (tested: CD47 analyte up to 100 nM)”.
On the same count and under the same terms, as for B19, the entry is “no binding (tested: CD47 analyte up to 100 nM)”.

The next assay deals with T3, cynomolgus monkey CD47. Described as above.
For the molecule B18, the binding result was “no binding (tested: CD47 analyte up to 100 nM)”.
The same measure, in the same setting: next, B19: “no binding (tested: CD47 analyte up to 100 nM)”.

The target of another assay is T1, mouse CD47. The assay is described as above.
For the molecule B18, the binding result is on record as “no binding (tested: CD47 analyte up to 100 nM)”.
Still for that read-out and setting: next, B19: “no binding (tested: CD47 analyte up to 100 nM)”.

In general, Kd refers to the concentration at which binding is half-saturated.
